Laboratory results from patent WO2019076277A1 (dated 2019).

T1: human LAG-3 full-length protein overexpressed on CHO-S cells (human, UniProt P18627 23-525)
T1 construct: whole, on cells; also called full-length LAG-3; CHO-S cells overexpressing the human LAG-3 full-length protein
T1 sequence (looked up): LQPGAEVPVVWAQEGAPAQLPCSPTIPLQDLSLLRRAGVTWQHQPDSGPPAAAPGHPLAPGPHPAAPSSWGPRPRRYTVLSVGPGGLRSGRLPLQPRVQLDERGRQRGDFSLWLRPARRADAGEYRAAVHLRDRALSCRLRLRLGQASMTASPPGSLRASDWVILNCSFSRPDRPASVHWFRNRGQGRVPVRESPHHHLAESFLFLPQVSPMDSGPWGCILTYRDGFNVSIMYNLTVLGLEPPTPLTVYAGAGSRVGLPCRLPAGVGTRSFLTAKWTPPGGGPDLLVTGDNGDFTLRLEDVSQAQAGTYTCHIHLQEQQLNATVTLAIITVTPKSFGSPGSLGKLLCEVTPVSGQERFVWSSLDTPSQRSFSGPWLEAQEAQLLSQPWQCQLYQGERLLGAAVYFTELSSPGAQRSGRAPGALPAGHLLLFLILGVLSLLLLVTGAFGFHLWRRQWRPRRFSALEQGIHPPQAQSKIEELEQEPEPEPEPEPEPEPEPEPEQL

T2: human LAG-3 protein (human, UniProt P18627 23-450, limits assumed)
T2 construct: also called human LAG-3 antigen; LAG-3 antigen
T2 sequence (looked up): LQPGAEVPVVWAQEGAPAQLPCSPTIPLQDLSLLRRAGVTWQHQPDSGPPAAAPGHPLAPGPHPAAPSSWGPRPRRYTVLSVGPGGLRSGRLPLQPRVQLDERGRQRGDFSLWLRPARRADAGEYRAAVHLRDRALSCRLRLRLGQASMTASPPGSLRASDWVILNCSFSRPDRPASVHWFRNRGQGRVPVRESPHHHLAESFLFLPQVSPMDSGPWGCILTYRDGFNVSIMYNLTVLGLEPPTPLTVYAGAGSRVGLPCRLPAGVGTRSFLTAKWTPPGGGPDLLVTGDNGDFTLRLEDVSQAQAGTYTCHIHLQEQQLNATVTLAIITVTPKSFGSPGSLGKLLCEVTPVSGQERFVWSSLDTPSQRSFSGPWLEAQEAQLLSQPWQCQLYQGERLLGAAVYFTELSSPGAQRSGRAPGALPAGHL


What was measured:
[1] = biological target: T1, human LAG-3 full-length protein …; experiment: cell ELISA on CHO-S cells overexpressing human LAG-3 (Test Example 2)
[2] = biological target: T2, human LAG-3 protein; experiment: binding ELISA on human LAG-3 protein (Test Example 1)

binding result [1]	binding result [2]	Binder
binds	binds	mAb303 (antibody, V domains shown, also called LAG-3 antibody mAb303; hybridoma clone mAb303) VH: EVQLQQSGPVLVKPGASVKMSCKASGYTLTDYYMNWVKQSHGKSLEWIGVINPYNGDTAYNQKFKGKATLTVDKSSNTAYMEINSLTSEDSAVYYCTRDDGYYDYYFDVWGTGTTVTVSS VL: DIQMTQSPSSLSASLGERVILTCRASQDIGSRLNWLQQGPDGTFKRLIYATSTLDSGVPKRFSGSRSGSDFSLTISSLESEDFVDYYCLQLASSPPTFGGGTKLEIK
binds	binds	mAb229 (antibody, V domains shown, also called LAG-3 antibody mAb229; hybridoma clone mAb229) VH: QIQLVQSGPELKKPGETVKISCKASGYTFTTSGMSWVKQAPGKGLKWMGWINTYSGVPTYADDFKGRFAFSLETSASTAYLQINNLKNEDTATYFCARDNYDARDVYYYAMDYWGQGTSVTVSS VL: DIQMTQSPASLSVSVGETVTITCRASENIYSNLAWYQQKQGKSPQLLVYAATNLADGVPSRFSGSGSGTQYSLKINSLQSEDFGSYYCQHFWITPWTFGGGTKLEIK
